Earlier results as cited in paper PMC3617488 (European journal of nuclear medicine and molecular imaging, 2011).

Columns and labels:
[1] = human

Substance | Plasma half-life (comparison with exendin-4) | Half-life of the parent peptide [1]
AC3174: exendin-4 analog which contains a leucine for methionine substitution | shorter plasma half-life | –
exendin-4: subcutaneously administered peptide drug used in the treatment of type 2 diabetes | – | 9.57 h
